# Assay results as given in the supplement of paper PMC7877785.
# ± gives the uncertainty stated by the source.
# Test: self-splicing fitness, log relative to wild type (ln ratio); higher = more splicing; Tetrahymena group I intron in knt gene, E. coli kanamycin selection, DiMSum; sequences stand for … in CUCUCU…GGAGGGAAAAGUUAUCAGGCAUGCACCUGGUAGCUAGUCUUUAAACCAAUAGAUUGCAUCGGUUUAAAAGGCAAGACCGUCAAAUUGCGGGAAAGGGGUCAACAGCCGUUCAGUACCAAGUCUCAGGGGAAACUUUGAGAUGGCCUUGCAAAGGGUAUGGUAAUAAGCUGACGGACAUGGUCCUAACCACGCAGCCAAGUCCUAAGUCAACAGAUCUUCUGUUGAUAUGGAUGCAGUUCACAGACUAAAUGUCGGUCGGGGAAGAUGUAUUCUUCUCAUAAGAUAUAGUCGGACCUCUCCUUAAUGGGAGCUAGCGGAUGAAGUGAUGCAACACUGGAGCCGCUGGGAACUAAUUUGUAUGCGAAAGUAUAUUGAUUAGUUUUGGAGUACUCGUGGUCG
# Outline: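 A randomised library covering all eight P1ex-region intron nucleotides was built with the intron in the knt kanamycin-resistance gene on pET-22b(+) and held in E. coli BL21(DE3). Cells were grown overnight at 37°C or 30°C on LB agar, with or without 25 μg/mL kanamycin, plus 100 μg/mL carbenicillin, 50 μM IPTG and 0.2% rhamnose, and pooled colonies were amplicon-sequenced on an Illumina HiSeq 2500. DiMSum fitness is the error-weighted combination of wild-type-normalised replicate fold changes, kanamycin versus none.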
sequence,measurement,setting,value
CCAAAGCAAUAUUACGUGUG,self-splicing fitness (ln),30 °C,-1.33 ± 0.055
same,self-splicing fitness (ln),37 °C,-0.624 ± 0.066
GCACAGCAAUAUUACGGGUU,self-splicing fitness (ln),30 °C,-1.17 ± 0.041
same,self-splicing fitness (ln),37 °C,-0.667 ± 0.055
UAACAGCAAUAUUACGUUCG,self-splicing fitness (ln),30 °C,-0.514 ± 0.057
same,self-splicing fitness (ln),37 °C,0.266 ± 0.073
AGUAAGCAAUAUUACGUCGG,self-splicing fitness (ln),30 °C,-3.61 ± 0.35
same,self-splicing fitness (ln),37 °C,-1.8 ± 0.29
ACAAAGCAAUAUUACGCUCA,self-splicing fitness (ln),30 °C,-0.782 ± 0.088
same,self-splicing fitness (ln),37 °C,0.156 ± 0.11
AUAGAGCAAUAUUACGGGCG,self-splicing fitness (ln),30 °C,-3 ± 0.22
same,self-splicing fitness (ln),37 °C,-2.13 ± 0.31
UCGUAGCAAUAUUACGCACA,self-splicing fitness (ln),30 °C,-2.52 ± 0.21
same,self-splicing fitness (ln),37 °C,-1.7 ± 0.2
UAUGAGCAAUAUUACGCUUU,self-splicing fitness (ln),30 °C,-4.14 ± 0.33
same,self-splicing fitness (ln),37 °C,-2.65 ± 0.36
AGUCAGCAAUAUUACGCCCA,self-splicing fitness (ln),30 °C,-1.19 ± 0.13
same,self-splicing fitness (ln),37 °C,0.479 ± 0.18
GAACAGCAAUAUUACGAUCC,self-splicing fitness (ln),30 °C,-2.18 ± 0.17
same,self-splicing fitness (ln),37 °C,-0.784 ± 0.24
AUUAAGCAAUAUUACGGCAC,self-splicing fitness (ln),30 °C,-1 ± 0.086
same,self-splicing fitness (ln),37 °C,-0.297 ± 0.11
CCGAAGCAAUAUUACGGAGU,self-splicing fitness (ln),30 °C,-1.88 ± 0.16
same,self-splicing fitness (ln),37 °C,-2.98 ± 0.25
CUUUAGCAAUAUUACGAUUU,self-splicing fitness (ln),30 °C,-2.66 ± 0.18
same,self-splicing fitness (ln),37 °C,-2.72 ± 0.3
AUCGAGCAAUAUUACGAUGU,self-splicing fitness (ln),30 °C,-2.9 ± 0.12
same,self-splicing fitness (ln),37 °C,-1.76 ± 0.11
AAACAGCAAUAUUACGCAUU,self-splicing fitness (ln),30 °C,-2.68 ± 0.094
same,self-splicing fitness (ln),37 °C,-1.08 ± 0.094
CGGUAGCAAUAUUACGCAUC,self-splicing fitness (ln),37 °C,-2.58 ± 0.21
GAAUAGCAAUAUUACGAGGA,self-splicing fitness (ln),30 °C,-2.85 ± 0.33
same,self-splicing fitness (ln),37 °C,-1.5 ± 0.18
UCUUAGCAAUAUUACGUUCC,self-splicing fitness (ln),30 °C,-3.4 ± 0.3
GCCUAGCAAUAUUACGUCGG,self-splicing fitness (ln),30 °C,-3.62 ± 0.19
same,self-splicing fitness (ln),37 °C,-2.93 ± 0.21
CACUAGCAAUAUUACGAACA,self-splicing fitness (ln),30 °C,-3.04 ± 0.42
same,self-splicing fitness (ln),37 °C,-2.83 ± 0.3
GUCAAGCAAUAUUACGUACU,self-splicing fitness (ln),30 °C,-1.98 ± 0.13
same,self-splicing fitness (ln),37 °C,-0.175 ± 0.12
CAGAAGCAAUAUUACGGUCU,self-splicing fitness (ln),30 °C,-1.52 ± 0.064
same,self-splicing fitness (ln),37 °C,-1.09 ± 0.082
AGAAAGCAAUAUUACGACUG,self-splicing fitness (ln),30 °C,-1.04 ± 0.093
same,self-splicing fitness (ln),37 °C,-0.249 ± 0.12
GUGAAGCAAUAUUACGUCUU,self-splicing fitness (ln),30 °C,-1.6 ± 0.067
same,self-splicing fitness (ln),37 °C,-0.642 ± 0.078
CAGGAGCAAUAUUACGGGAG,self-splicing fitness (ln),30 °C,-1.92 ± 0.18
same,self-splicing fitness (ln),37 °C,-0.745 ± 0.17
AGGCAGCAAUAUUACGCUGG,self-splicing fitness (ln),30 °C,-3.73 ± 0.22
same,self-splicing fitness (ln),37 °C,-1.2 ± 0.17
AAGAAGCAAUAUUACGCUUC,self-splicing fitness (ln),30 °C,-3 ± 0.26
UCUUAGCAAUAUUACGGCUA,self-splicing fitness (ln),30 °C,-2.85 ± 0.41
same,self-splicing fitness (ln),37 °C,-2.34 ± 0.42
CCCGAGCAAUAUUACGUUGA,self-splicing fitness (ln),30 °C,-4.57 ± 0.32
same,self-splicing fitness (ln),37 °C,-2.78 ± 0.2
CAAUAGCAAUAUUACGAGAA,self-splicing fitness (ln),30 °C,-3.83 ± 0.39
same,self-splicing fitness (ln),37 °C,-2.71 ± 0.3
GAUGAGCAAUAUUACGCGGU,self-splicing fitness (ln),30 °C,-3.33 ± 0.28
same,self-splicing fitness (ln),37 °C,-2.77 ± 0.34
UCGAAGCAAUAUUACGCCAU,self-splicing fitness (ln),30 °C,-3.42 ± 0.32
same,self-splicing fitness (ln),37 °C,-2.52 ± 0.48
UUUGAGCAAUAUUACGUGCG,self-splicing fitness (ln),37 °C,-1.29 ± 0.25
AAAGAGCAAUAUUACGAAGU,self-splicing fitness (ln),30 °C,-3.28 ± 0.38
same,self-splicing fitness (ln),37 °C,-2.05 ± 0.32
UUGCAGCAAUAUUACGACCU,self-splicing fitness (ln),30 °C,-0.892 ± 0.1
same,self-splicing fitness (ln),37 °C,-0.129 ± 0.15
UAUUAGCAAUAUUACGGUCU,self-splicing fitness (ln),30 °C,-2.66 ± 0.23
same,self-splicing fitness (ln),37 °C,-1.57 ± 0.32
UAUCAGCAAUAUUACGUUGG,self-splicing fitness (ln),30 °C,-2.48 ± 0.089
same,self-splicing fitness (ln),37 °C,-0.612 ± 0.1
CUUGAGCAAUAUUACGUACU,self-splicing fitness (ln),30 °C,-4.15 ± 0.42
same,self-splicing fitness (ln),37 °C,-3.49 ± 0.39
UUCCAGCAAUAUUACGAGUA,self-splicing fitness (ln),30 °C,-1.12 ± 0.07
same,self-splicing fitness (ln),37 °C,0.0282 ± 0.078
CAUUAGCAAUAUUACGCUUU,self-splicing fitness (ln),30 °C,-3.35 ± 0.23
same,self-splicing fitness (ln),37 °C,-1.06 ± 0.16
GUUGAGCAAUAUUACGCAGG,self-splicing fitness (ln),30 °C,-3.35 ± 0.28
same,self-splicing fitness (ln),37 °C,-1.75 ± 0.37
CCUCAGCAAUAUUACGUAAU,self-splicing fitness (ln),30 °C,-4.03 ± 0.21
same,self-splicing fitness (ln),37 °C,-2.74 ± 0.22
UACAAGCAAUAUUACGCCAC,self-splicing fitness (ln),30 °C,-2.95 ± 0.27
GACCAGCAAUAUUACGUCAC,self-splicing fitness (ln),30 °C,-4.24 ± 0.27
same,self-splicing fitness (ln),37 °C,-2.54 ± 0.2
UAUGAGCAAUAUUACGGAGU,self-splicing fitness (ln),30 °C,-4.87 ± 0.36
same,self-splicing fitness (ln),37 °C,-3.53 ± 0.37
GUUGAGCAAUAUUACGCAAG,self-splicing fitness (ln),30 °C,-2.77 ± 0.21
same,self-splicing fitness (ln),37 °C,-1.79 ± 0.26
GUAGAGCAAUAUUACGCUUU,self-splicing fitness (ln),30 °C,-2.36 ± 0.19
same,self-splicing fitness (ln),37 °C,-2 ± 0.23
UGCAAGCAAUAUUACGGCAU,self-splicing fitness (ln),30 °C,-3.05 ± 0.29
same,self-splicing fitness (ln),37 °C,-2.1 ± 0.19
GAUCAGCAAUAUUACGUCCC,self-splicing fitness (ln),30 °C,-2.07 ± 0.41
same,self-splicing fitness (ln),37 °C,-0.381 ± 0.22
